In the supplement of paper PMC9170038:

System: MS2 coat protein
Assay: apparent KD of MS2 coat protein; designed switch direction (-1 OFF switch, 1 ON switch): -1; higher = weaker reporter binding
Procedure, shortened: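 Designed RNA switches sharing common flanks were transcribed on Illumina chips by stalled E. coli RNA polymerase. They were titrated with SNAP-549-labelled MS2 coat protein, from 0.7 or 1.5 nM doubling to 3 µM, in Tris-HCl pH 7.5 buffer with KCl, MgCl2, BSA, DTT, tRNA and Tween-20. Titrations ran without input, with 200 uM small-molecule ligand, or with an oligonucleotide input. The apparent KD of each design is the median over its clusters, after curve-fitting of normalised cluster fluorescence.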

[1] = input ligand: microRNA oligo, concentration not stated
[2] = Eterna round: R95, input ligand: microRNA oligo, concentration not stated
[3] = Eterna round: R95, input ligand: FMN 200 uM
[4] = Eterna round: R95, input ligand: none

Sequence | apparent KD of MS2 coat protein (input ligand: FMN 200 uM) [nM] | apparent KD of MS2 coat protein [1] [nM] | apparent KD of MS2 coat protein (input ligand: none) [nM] | apparent KD of MS2 coat protein [2] [nM] | apparent KD of MS2 coat protein [3] [nM] | apparent KD of MS2 coat protein [4] [nM]
AAGAAUCGCAAUACGAAUAAGCAAUACGAACAAUAGCAAACAUGAGGAUCACCCAUGUCAAGGGUGACAACGCUCUA [JR_Sensorv2_tov2_Sub107] (Eterna round: R96, puzzle: Sensor v2, turn-off variant 2) | 173 | 61.2 | 862 | – | – | –
AAGAAUUAGUCAGGAUAUAGCGGCCAAGAACUACUAGAAGGGAUUAGACAUGAGGAUCACCCAUGUGAUCUUUUUGUAGGGACG [Eternabot solution 15] (Eterna round: R96, puzzle: Exclusion NG 1) | 32.6 | 25.7 | 41.2 | – | – | –
AAGACAAAUGUAGGAUAUGCGUGGCGAAGCUAUGCAGAAGGACAUGAGGAUCACCCAUGUCUAAGCGUCUGCGUACAGAUGCUA [JL eng1 1.35 mod 8] (Eterna round: R96, puzzle: Exclusion NG 1) | 19.9 | 10.7 | 18.4 | – | – | –
AAGAGCAAGGCAGGAUAUCACAUGAGGAUCACCCAUGUAUCCGAAAGAACAACGCCCGCGUUGUGUGAGAAGGGUCUAUGCAGG [Eternabot solution 10] (Eterna round: R96, puzzle: Exclusion NG 2) | 370 | 61.6 | 75.8 | – | – | –
AAGAGUGCAGGAUAUACUUGGUAGGGCGGGUGGAUGGUUUGACAUGAGGAUCACCCAUGUAGAAGGGCAGAGAG [JR_Exclu2_Sub054] (puzzle: Exclusion 2) | – | – | – | 31.4 | – | –
AAGAGUGCAGGAUAUACUUGUUAGGACGGUUGGAUGAAUGGACAUGAGGAUCACCCAUGUAGAAGGGCAGAGAG [JR_Exclu2_Sub051] (puzzle: Exclusion 2) | – | – | – | 30.2 | 33.9 | 41.3
AAGAUGUAAGGAUAUGCUGCUCGUCACAAAAGUGAUGAGUAGCAGAAGGUACAUGAGGAUCACCCAUGUAGAGA [Opal 38] (Eterna round: R96, puzzle: Exclusion 4) | 60.6 | 18.2 | 22.7 | – | – | –
AAGAUGUCAGGAUAUUAGUAGUAAAUGAAUAAAAUUAUUACUGAGAAGGGACAUGAGGAUCACCCAUGUGUCUU [Mat - Exclusion 4 - Eli Mod - D11] (Eterna round: R97, puzzle: Exclusion 4) | 80.2 | – | 19.8 | – | – | –
AAGAUGUGAGGAUAUCUAUUGAAGCGCGGUUCCCGGCAGAGAGAGAAGGCACAUGAGGAUCACCCAUGUAUAGC [Eternabot (L1) Solution 53] (Eterna round: R97, puzzle: Exclusion 4) | 56.5 | – | 20.6 | – | – | –
AAGAUGUUAGGAUAUCGAAGGUUGUGGCAGGCGGGAAUUUGCGAGAAGGAACAUGAGGAUCACCCAUGUGAAAU [JR_Exclu4_Sub043] (puzzle: Exclusion 4) | – | – | – | 19.7 | – | –
AAGAUUAGGAAAGGAUAUAAAGAGAAACAAAGUGCACAUGAGGAUCACCCAUGUACUGACACGCGUUAGAAGGUUCCAGUCCUC [Eternabot solution 40] (Eterna round: R96, puzzle: Exclusion NG 2) | 18.1 | 15.5 | 25.4 | – | – | –
AAGCACCAUGUGAGGAUAUGCCACGGAACCGAUGGGCAGAAGGCACAUGAGGAUCACCCAUGUGACCGGUGGAU [Eternabot (Original) Solution 48] (Eterna round: R97, puzzle: Brourd's mod of Exclusion 4) | 236 | – | 44.6 | – | – | –
AAGCCUCUUGUCAGGAUAUCUGUCGGUCCUCCAAGAGAGAAGGGACAUGAGGAUCACCCAUGUAAGCCCAGGGA [Qubere] (puzzle: Brourd's mod of Exclusion 4) | – | – | – | 13.5 | – | –
AAGCGCGUAGGAUAUACAUGAGGAUCACCCAUGUGAGGAAGGAGUAGGAAGUGUGGAAGUAGAAGGACGGAGAG [JR_Exclu3_Sub077] (puzzle: Exclusion 3) | – | – | – | 31.1 | 34.4 | 37.4
AAGGAUAGAGGAUAUACAUAGAUACAGAUUCAUGUAGAACUACAUGAGGAUCACCCAUGUAGAAGGCUAUCCUA [Mat - Same state - Mayanna Mod - D121] (Eterna round: R96, puzzle: Exclusion 2) | 316 | 24.8 | 33.3 | – | – | –
AAGGAUAGAGGAUAUACAUAGAUACAGAUUCAUGUAGAAUUACAUGAGGAUCACCCAUGUAGAAGGCUAUCCUA [Fiskers Ex 2 - 1] (puzzle: Exclusion 2) | – | – | – | 285 | – | –
AAGGAUAGAGGAUAUACAUAGAUACAGAUUCAUGUAGACCUACAUGAGGAUCACCCAUGUAGAAGGCUAUCCUA [Fiskers Ex 2 - 11] (puzzle: Exclusion 2) | – | – | – | 16 | – | –
AAGGGACAUGAGGAUCACCCAUGUGAGGAUAUGCUAUGGAAAAUAAAAAAUAAACAUAGCAGAAGGCAUAAAAA [Mat - Exclusion 1 - Eli mod - D37] (Eterna round: R96, puzzle: Exclusion 1) | 89.2 | 65.3 | 99.2 | – | – | –
AAGGGUACUUUCGGAACGACAUGAGGAUCACCCAUGUAUACUGAGGAUAUCCACUACUAAGGACGGGAGAAGGCAGUGUAAUGU [Ex NG3 #78] (Eterna round: R96, puzzle: Exclusion NG 3) | 18.8 | 13.6 | 18.5 | – | – | –
AAGGGUGCUUUCAGAACGACAUGAGGAUCACCCAUGUAGACUGAGGAUAUCUACUCCUAAGGACGGGAGAAGGUAGUGUAAUGC [Ex NG3 #66] (Eterna round: R96, puzzle: Exclusion NG 3) | 22.8 | 17.7 | 26.1 | – | – | –
AAGGUGGCAGGAUAUACAUGAGGAUCACCCAUGUGAACGUAAGGAGACUCUCUCAAAGGUAGAAGGGUCGGUUC [Eternabot (L2) Solution 1] (Eterna round: R97, puzzle: Exclusion 3) | 56.3 | – | 121 | – | – | –
AAGUACCGGUGAGGAUAUUUUUAAUAGAACUUUAUGAUAUACAUGAGGAUCACCCAUGUUACUUUAAAGAAGGCAUCGGAUUAA [Mat - Exclusion NG 2 - Mod of JL - D86] (Eterna round: R96, puzzle: Exclusion NG 2) | – | 12.5 | – | – | – | –
AAGUACCGGUGAGGAUAUUUUUAAUAGAGCUUUAUGAUAUACAUGAGGAUCACCCAUGUUACGUUAAAGAAGGCAUCGGAUUAA [Mat - Exclusion NG 2 - Mod of JL - D97] (Eterna round: R96, puzzle: Exclusion NG 2) | 16.1 | 13.7 | 19.3 | – | – | –
AAGUACCGUCACGAUAGUGAUGGUACAACAAGCAUGUAAACAUGAGGAUCACCCAUGUCCUCAAAUGCUCGUCUUAU [Sensor 3 - 65] (puzzle: Sensor v3, turn-off variant 2) | – | – | – | 1090 | 556 | 689
AAGUACCGUCACGAUAGUGAUGGUACAACAAGCAUGUAAACAUGAGGAUCACCCAUGUCCUCAUAUGCUCGUCUUAU [Sensor 3 - 64] (puzzle: Sensor v3, turn-off variant 2) | – | – | – | 34.3 | 375 | 566
AAGUACCGUCACGAUAGUGAUGGUACAACAAGCAUGUAAACAUGAGGAUCACCCAUGUCCUCGAAUGCUCGUCUUAU [Sensor 3 - 66] (puzzle: Sensor v3, turn-off variant 2) | – | – | – | 772 | 554 | 519
AAGUACCGUCACGAUAGUGAUGGUACAACAAGCGAAUGUACAUGAGGAUCACCCAUGUCCUCUUUUGCUCGUCUUAU [Sensor 3 - 97] (puzzle: Sensor v3, turn-off variant 2) | – | – | – | 31.9 | 130 | 155
AAGUACCGUCACGAUAGUGAUGGUACAACAAGUAGUGAAACAUGAGGAUCACCCAUGUCCUCAAUUGCUCGUCUUAU [Sensor 3 - 81] (puzzle: Sensor v3, turn-off variant 2) | – | – | – | 264 | 776 | 1020
AAGUACCGUCACGAUAGUGAUGGUACAACAAGUAGUGAAACAUGAGGAUCACCCAUGUCCUCAGUUGCUCGUCUUAU [Sensor 3 - 86] (puzzle: Sensor v3, turn-off variant 2) | – | – | – | 269 | 283 | 298
